Assay results taken from patent publication US6339069.

T1: N-acetyl-alanyl-alanyl-dioleoyl phosphatidylethanolamine
T1 chain: AA

T2: MeO-suc-ala-ala-pro-val-DOPE (1,2-Dioleoyl-sn-glycero-3-phosphoethanolamido-val-pro-ala-ala-sucMeO)
T2 chain: AAPV


Key:
[1] = molecular target: T1, N-acetyl-alanyl-alanyl-dioleoyl …
[2] = molecular target: T2, MeO-suc-ala-ala-pro-val-DOPE …

| Protein | cleavage of N-Ac-AA-DOPE to DOPE, TLC [1] | cleavage of N-Ac-AA-DOPE, HPLC [1] | cleavage of MeO-suc-ala-ala-pro-val-DOPE, TLC, HLE dose titration [2] | conversion of MeO-suc-AAPV-DOPE to DOPE, 31P-NMR [2] | conversion of exposed (outer leaflet) MeO-suc-AAPV-DOPE to DOPE, 31P-NMR, assuming unilamellar vesicles [2] | kinetics of cleavage of MeO-suc-ala-ala-pro-val-DOPE, TLC [2] | cleavage of N-Ac-ala-ala-DOPE, HPLC [1] | conversion of N-acetyl-ala-ala-DOPE to DOPE, 31P NMR integration [1] |
| --- | --- | --- | --- | --- | --- | --- | --- | --- |
| Human leukocyte elastase (protein) IVGGRRARPHAWPFMVSLQLRGGHFCGATLIAPNFVMSAAHCVANVNVRAVRVVLGAHNLSRREPTRQVFAVQRIFENGYDPVNLLNDIVILQLNGSATINANVQVAQLPAQGRRLGNGVQCLAMGWGLLGRNRGIASVLQELNVTVVTSLCRRSNVCTLVRGRQAGVCFGDSGSPLVCNGLIHGIASFVRGGCASGLYPDAFAPVAQFVNWIDSIIQ | Treatment of N-Ac-AA-DOPE liposomes with elastase generated a product corresponding to DOPE | Both elastase and proteinase K cleaved N-Ac-AA-DOPE to a similar extent | between 5-40 micrograms of HLE were effective in cleaving the AAPV-PE | Treatment with 5 micrograms of elastase/100 nmol lipid yielded 20% DOPE | the minimal percentage conversion of exposed MeO-suc-AAPV-DOPE (SEQ ID NO:42) to DOPE in the outer leaflet lipid of this preparation was 40% | The peptide was cleaved by HLE in as little as 1 hour at 37 degrees C. |  |  |
| proteinase K (protein) AAQTNAPWGLARISSTSPGTSTYYYDESAGQGSCVYVIDTGIEASHPEFEGRAQMVKTYYYSSRDGNGHGTHCAGTVGSRTYGVAKKTQLFGVKVLDDNGSGQYSTIIAGMDFVASDKNNRNCPKGVVASLSLGGGYSSSVNSAAARLQSSGVMVAVAAGNNNADARNYSPASEPSVCTVGASDRYDRRSSFSNYGSVLDIFGPGTSILSTWIGGSTRSISGTSMATPHVAGLAAYLMTLGKTTAASACRYIADTANKGDLSNIPFGTVNLLAYNNYQA | Upon incubation of N-Ac-AA-DOPE liposomes with proteinase K the peptide-lipid was cleaved and DOPE was generated | Both elastase and proteinase K cleaved N-Ac-AA-DOPE to a similar extent |  |  |  |  | both proteinase K, with a known cleavage site, and the nonspecific mixture of proteases found in pronase, effected cleavage of N-Ac-ala-ala-DOPE from the liposomes | approximately 20% of the N-acetyl-ala-ala-DOPE was converted to pure DOPE in sample B |
